Tests used:
[1] = molecular target: T1, LmGAPDH (glyceraldehyde-3-phosphate dehydrogenase) (Leishmania major (strain 5ASKH), UniProt Q4Q6Z5 1-361); assay: EMSA; concentration dependent; supershift with anti-LmGAPDH; conditions: protein: recombinant; tags: His tag (pET15B NdeI/BamHI, Ni-NTA); chain copies: 4; label: 3' biotin; single strand
[2] = molecular target: T1, LmGAPDH (glyceraldehyde-3-phosphate …); assay: competition; about 200-fold excess unlabeled RNA competes with labeled N1; conditions: protein: recombinant; tags: His tag (pET15B NdeI/BamHI, Ni-NTA); chain copies: 4; label: none; single strand
[3] = molecular target: T1, LmGAPDH (glyceraldehyde-3-phosphate …); assay: EMSA; no complex also at higher LmGAPDH concentrations; conditions: protein: recombinant; tags: His tag (pET15B NdeI/BamHI, Ni-NTA); chain copies: 4; label: 3' biotin; single strand

GUGAUUAUUUAUUAUUUAUUUAUUAUUUAUUUAUUUAG (ssRNA) [TNF-alpha 3'-UTR ARE38]
binding result [1]: binds

GUGAUUAUUUAUUAUUUAUUUAUUAUUUAUUUAUUUAG (ssRNA) [TNF-alpha 3'-UTR ARE38, unlabeled competitor]
binding result [2]: binds

AGAACAUCUUGGAAAUAGCUCCCAGAAAAGCAAGCAGC (ssRNA) [TNF-alpha 5'-UTR oligonucleotide]
binding result [3]: no binding
